According to patent US12723248 (Amgen, dated 2026):

Biological target: T1, human asialoglycoprotein receptor 1 (ASGR1) (human, UniProt P07306 1-291)
T1 construct: whole, on cells; The cells were fixed in formaldehyde before staining; also called hASGR1; HL-1
T1 sequence (looked up): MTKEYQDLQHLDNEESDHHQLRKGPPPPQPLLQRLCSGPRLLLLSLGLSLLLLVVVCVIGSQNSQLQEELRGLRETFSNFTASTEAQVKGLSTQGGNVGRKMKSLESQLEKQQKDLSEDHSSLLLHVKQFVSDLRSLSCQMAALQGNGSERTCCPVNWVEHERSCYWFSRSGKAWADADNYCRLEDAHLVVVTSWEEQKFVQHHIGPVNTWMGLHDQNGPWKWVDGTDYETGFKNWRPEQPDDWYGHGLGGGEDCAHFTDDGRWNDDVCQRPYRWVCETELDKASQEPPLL
Assay: immunofluorescence on formaldehyde-fixed Hep3B or HepG2 cells, Alexa488 anti-human IgG secondary, high-content imaging
Protocol: The siRNA molecules in Tier 1 and Tier 2 screening sets were synthesized without chemical modifications. Each siRNA molecule was comprised of a 21 nucleotide sense strand and 21 nucleotide antisense strand that hybridized to form a duplex region of 19 base pairs with a 2 nucleotide overhang at the 3' end of each strand. The efficacy of each of the siRNA molecules in reducing ASGR1 expression was assessed using a 384-well format in vitro immunoassay, which quantifies levels of ASGR1 protein on the cell surface of Hep3B or HepG2 cells.
Transfection complexes of the siRNA molecules and RNAiMax transfection reagent (Life Technologies) in EMEM media (ATCC 30-2003) were prepared in 384-well plates in accordance with manufacturer's recommendations. Human hepatocellular carcinoma Hep3B (ATCC HB-8064) or HepG2 (ATCC HB-8065) cells in EMEM media supplemented with 10% fetal bovine serum and 1% antibiotic/antimycotic were added to each well. Cells were incubated for 4 days at 37° C. and 5% CO_2. […] Data was analyzed using Columbus image analysis software and GeneData Screener software to quantify several measures of ASGR1 protein levels, cell count, and cell morphology on a per cell and per well basis.

binding result: binds
B1: anti-ASGR1 primary antibody (Amgen clone 7E11) (antibody, human IgG1, kappa, N297G, V domains shown)
VH: QVQLVESGGGVVQPGRSLRLSCAASGFTFSSFGMHWVRQAPGKGLEWVAIIWHDGSNKYYADSVKGRFTISRDNSKNTLYLQMSSLRAEDTAVYYCARDLSMGGMDVWGQGTTVTVSS
VL: DIQMTQSPSSLSASVGDRVTIACRASQNIISYLNWYQQKPGKAPKFLIYTASSLQSGVPSRFSGSGSGTDFTLTISSLQPEDFAIYYCQQTYSTPLTFGGGTKVEIKR
notes: It was used as a staining reagent and detected with an Alexa488-conjugated anti-human IgG secondary antibody
